No end group written: not given here.
Legend:
Assay in all cases: enzyme inhibition at equilibrium, steady state velocities fitted to the equation for tight binding inhibitors
[1] = target: human cathepsin G (human, UniProt P08311)
[2] = target: porcine tissue kallikrein (porcine, UniProt P00752)
[3] = target: human plasmin (human, UniProt P00747)
[4] = target: bovine trypsin (bovine, UniProt P00760)
[5] = target: bovine chymotrypsin (bovine, UniProt P00766)

Ki [1]: 2.9 nM
Ki [2]: 13 nM
Ki [3]: 138 nM
Ki [4]: 7 nM
Ki [5]: 6.4 nM
B1: hirustasin (Hirudo antistasin) (other)
chain: TQGNTCGGETCSAAQVCLKGKCVCNEVHCRIRCKYGLKKDENGCEYPCSCAKASQ
modifications: not fully specified; cysteine pairing not given here
